Assay results published in the supplement of paper PMC10065799, “High-throughput profiling of sequence recognition by tyrosine kinases and SH2 domains using bacterial peptide display” (eLife, 2023).

Target: FGFR3 (UniProt P22607)
Assay: phosphorylation enrichment, bacterial display (enrichment ratio); higher = better substrate or ligand; peptides without Tyr show the background
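For phosphorylation enrichment, bacterial display in this document: 11-residue human phosphosite peptides and single-mutation variants displayed on the E. coli surface, counted by deep sequencing, each peptide's frequency after selection divided by its frequency in the unselected input library; frequency after pTyr selection over input frequency; kinase dosed for 20-30% of maximal phosphorylation in three min.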

FGFR3, sequence (P22607 whole entry, looked up): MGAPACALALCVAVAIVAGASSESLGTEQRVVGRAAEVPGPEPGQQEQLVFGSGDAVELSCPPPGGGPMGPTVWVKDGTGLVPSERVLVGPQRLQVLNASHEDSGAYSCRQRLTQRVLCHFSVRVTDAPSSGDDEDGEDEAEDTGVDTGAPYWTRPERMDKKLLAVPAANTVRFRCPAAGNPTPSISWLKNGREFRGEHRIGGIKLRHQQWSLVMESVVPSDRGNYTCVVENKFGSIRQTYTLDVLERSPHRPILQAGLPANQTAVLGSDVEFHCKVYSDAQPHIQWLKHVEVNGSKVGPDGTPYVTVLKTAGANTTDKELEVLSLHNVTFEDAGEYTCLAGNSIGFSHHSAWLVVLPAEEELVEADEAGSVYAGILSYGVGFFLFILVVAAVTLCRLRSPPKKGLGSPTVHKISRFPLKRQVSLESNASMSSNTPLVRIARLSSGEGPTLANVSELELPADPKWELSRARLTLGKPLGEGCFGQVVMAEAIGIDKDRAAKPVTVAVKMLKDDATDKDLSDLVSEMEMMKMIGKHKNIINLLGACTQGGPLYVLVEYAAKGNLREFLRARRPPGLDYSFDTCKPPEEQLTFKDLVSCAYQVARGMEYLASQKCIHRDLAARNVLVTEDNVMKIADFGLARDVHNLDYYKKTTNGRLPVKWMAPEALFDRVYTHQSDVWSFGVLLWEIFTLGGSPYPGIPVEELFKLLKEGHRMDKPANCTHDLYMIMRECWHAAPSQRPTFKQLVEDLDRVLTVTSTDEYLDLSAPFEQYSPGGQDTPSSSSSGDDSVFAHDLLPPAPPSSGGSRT

Sequence | phosphorylation enrichment
SRGLAYPARPA [LEMD2_Y122] | 0.266
LMIKEYLTKEL [BAG3_Y457_E455K] | 0.72
HSGIYYKPESL [L2HGDH_Y103] | 4.95
ELTSVYDSRAR [SENP1_Y349] | 0.574
CEDGNYSPEIS [PTDSS1_Y424_T423N] | 0.637
YVPSFYHAFSG [ACTN4_Y265_S262P] | 1.17
QRCFVYFFSFL [PTEN_Y176_R173C_YF] | 1.16
KKHIPYSEHKS [CSNK1G2_Y206_R207S] | 1.1
QISRDYGVLLE [PRDX3_Y172] | 0.69
SAEKAYHEQFS [TUBA1A_Y282_L286F] | 0.459
TIAIRYSHSRR [ACOXL_Y260] | 0.599
SLDLSYYTTSS [EMD_Y181_P183T] | 0.989
GTYEDYVEGLR [MYL6_Y89] | 0.743
VFLARYGPAWR [CYP2D6_Y124] | 0.501
KKYPDYIQIAR [SGMS2_Y59_M64R] | 2.55
IYHLSYHHNCE [PDE6B_Y227_L228H] | 1.17
VAVVDYVEPSP [TXNRD2_Y70] | 0.683
HPYNSYTYPRL [PAK5_Y316_S312P] | 0.962
EKQARYEIVEE [CDH5_Y223_V227E] | 0.798
RASGIYFVPKG [APBB1IP_Y340_YF] | 1.71
YRVAGYKTQGG [TIA1_Y383_E384K] | 0.376
ALEKTYNTYRS [B4GALNT2_Y538] | 0.439
GKTQQYDCKWY [BCR_Y751] | 0.598
GLCSYYETSKM [MAGED2_Y449_R446C] | 4.99
ILGRFYERGSI [PAX5_Y73_T75R_YF] | 0.517
GIADDYDKKKL [EIF1_Y54] | 0.565
HQEPVYSVAFS [TBL1X_Y509] | 3.89
VTRLRYPVCFG [ITK_Y336] | 0.877
QRIHNYYEHRY [HCN4_Y554_D553N] | 3.62

Target: c-Src SH2;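 also: peptide library displayed on the E. coli surface as eCPX fusions, selected cells deep-sequenced, score is each peptide's frequency after selection divided by its frequency in the input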
Assay: SH2 binding enrichment of the phosphorylated peptide, bacterial display (enrichment ratio); higher = better substrate or ligand; peptides without Tyr show the background

Sequence | SH2 binding enrichment
SRGLAYPARPA [LEMD2_Y122] | 0.413
LMIKEYLTKEL [BAG3_Y457_E455K] | 0.621
HSGIYYKPESL [L2HGDH_Y103] | 0.601
ELTSVYDSRAR [SENP1_Y349] | 0.397
CEDGNYSPEIS [PTDSS1_Y424_T423N] | 0.747
YVPSFYHAFSG [ACTN4_Y265_S262P] | 0.997
QRCFVYFFSFL [PTEN_Y176_R173C_YF] | 1.09
KKHIPYSEHKS [CSNK1G2_Y206_R207S] | 1.51
QISRDYGVLLE [PRDX3_Y172] | 0.576
SAEKAYHEQFS [TUBA1A_Y282_L286F] | 0.512
TIAIRYSHSRR [ACOXL_Y260] | 0.495
SLDLSYYTTSS [EMD_Y181_P183T] | 1.58
GTYEDYVEGLR [MYL6_Y89] | 0.766
VFLARYGPAWR [CYP2D6_Y124] | 0.572
KKYPDYIQIAR [SGMS2_Y59_M64R] | 0.858
IYHLSYHHNCE [PDE6B_Y227_L228H] | 0.833
VAVVDYVEPSP [TXNRD2_Y70] | 0.446
HPYNSYTYPRL [PAK5_Y316_S312P] | 7.32
EKQARYEIVEE [CDH5_Y223_V227E] | 18.8
RASGIYFVPKG [APBB1IP_Y340_YF] | 0.935
YRVAGYKTQGG [TIA1_Y383_E384K] | 0.409
ALEKTYNTYRS [B4GALNT2_Y538] | 0.448
GKTQQYDCKWY [BCR_Y751] | 0.758
GLCSYYETSKM [MAGED2_Y449_R446C] | 1.2
ILGRFYERGSI [PAX5_Y73_T75R_YF] | 0.575
GIADDYDKKKL [EIF1_Y54] | 0.452
HQEPVYSVAFS [TBL1X_Y509] | 0.533
VTRLRYPVCFG [ITK_Y336] | 1.06
QRIHNYYEHRY [HCN4_Y554_D553N] | 1.7
